Source: patent US20260258113A1 (US Dept. of Health and Human Services, published 2026)

Target: T1, purified human alpha globin, biotinylated and immobilized on streptavidin biosensors (human, UniProt P69905 2-142, biotinylated using EZ-Link NHS-PEG4 Biotinylation Kit (sites not given))
T1 construct: Ligand on the sensor in the bio-layer interferometry assay; also called full-length alpha globin
Test: bio-layer interferometry (Octet RED96), biotinylated alpha globin on streptavidin sensors, AHSP in solution at 62.5-1000 nM; AHSP as analyte on immobilized alpha globin (FIG. 2D)

T1 sequence (P69905 2-142 limits assumed): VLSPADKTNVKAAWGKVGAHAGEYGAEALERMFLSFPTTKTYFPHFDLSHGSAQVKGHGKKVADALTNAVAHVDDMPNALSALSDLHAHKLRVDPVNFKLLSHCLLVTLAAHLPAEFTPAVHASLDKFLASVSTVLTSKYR

Kd: 109 nM
B1: alpha hemoglobin stabilizing protein (other, UniProt Q9NZD4 1-102, looked up)
chain: MALLKANKDLISAGLKEFSVLLNQQVFNDPLVSEEDMVTVVEDWMNFYINYYRQQVTGEPQERDKALQELRQELNTLANPFLAKYRDFLKSHELPSHPPPSS
notes: Comparison analyte in the BLI assay; also called AHSP
